Test results from publication PMC10308326.

Key:
[1] = test system: TALE tetM_1298 (14 bp recognition) (engineered TALE (AvrBs3 scaffold in pMAL-c2X, repeats replaced; Xanthomonas?)); test: EMSA; settings: EMSA: 12 mM Tris, 60 mM KCl, 2 mM DTT, 0.1 mg/mL BSA, 30% glycerol, 5 mM MgCl2, 0.2 mM EDTA, RT 1 h then 4 °C 30 min, TALE 0.03-200 nM; GO assay: TALE storage …
[2] = test system: TALE tetM_611 (16 bp recognition) (engineered TALE (AvrBs3 scaffold in pMAL-c2X, repeats replaced; Xanthomonas?)); test: EMSA; settings: EMSA: 12 mM Tris, 60 mM KCl, 2 mM DTT, 0.1 mg/mL BSA, 30% glycerol, 5 mM MgCl2, 0.2 mM EDTA, RT 1 h then 4 °C 30 min, TALE 0.03-200 nM; GO assay: TALE storage …

GCGCCTTTCTGGGCTTCGCG / TTTTTTTTTTTTTTTCGCGAAGCCCAGAAAGGCGC [tetM_1298 EMSA oligo]
Kd [1]: 1.2 nM

GCGTGTTCTCTGTTCCCTCGCG / TTTTTTTTTTTTTTTCGCGAGGGAACAGAGAACACGC [tetM_611 EMSA oligo]
Kd [2]: 4.6 nM
